These results are taken from patent publication US20130095127A1, “METHODS OF INHIBITING INFLAMMATION AND INFLAMMATORY DISEASES USING Gal-3BP (BTBD17B, LGALS3BP, GALECTIN-3 BINDING PROTEIN, MAC-2 BINDING PROTEIN)” (LA JOLLA INSTITUTE FOR ALLERGY AND IMMUNOLOGY, priority 2010, published 2013).

For assay [1], the system named is NFAT. Description: Gal-3BP-induced IL-2 secretion with or without NFAT inhibitors (ELISA). It is filed as cell-based, human. The note with it: Gal-3BP 10 μg/ml for the times indicated; FIG. 6A. Here is the method: (§1) Measurement of cytokines was carried out with Ready set Go ELISA kits (eBioscience).
To determine if NFAT is required for Gal-3BP-induced IL-2 secretion, human blood monocytes were incubated with M-CSF (100 ng/ml) for 6 days to produce monocyte-derived macrophages (M0). […] Macrophages were alternatively treated with Gal-3BP (10 μg/ml) in the absence or presence of CSA (1 μM) or FK506 (1 μM), another known NFAT inhibitor (FIG. 6B). […] (P values are ***0.0004, **0.006 and *0.034)

Assay [2] relates to microRNAs known to be transcriptional targets of NFAT. Description: microRNA expression in M0 macrophages after Gal-3BP (miRCURY LNA Array). Format: cell-based. The note with it: Gal-3BP 10 ug/ml; human M0 macrophages; fold-change screen; FIG. 7. Here is the method:
The targets of NFAT signaling are largely cytokines, growth factors and their receptors, proteins involved in cell-cell interactions, as well as microRNAs (Crabtree and Schreiber, Cell, 138: 210 (2009)). To evaluate Gal-3BP's ability to induce NFAT signaling, microRNA expression in human M0 macrophages following Gal-3BP treatment was measured.
Human M0 macrophages were challenged with Gal-3BP (10 ug/ml), small RNAs were isolated and screened for microRNA expression using miRCURY™ Power Labeling Kit and hybridized on the miRCURY™ LNA Array (v.11.0). The samples were hybridized using a hybridization station and scanned using the Axon GenePix 4000B microarray scanner. GenePix pro V6.0 is used to extract the raw intensity of the image. Differentially expressed microRNAs were identified through fold-change screen. […] These microRNAs reflect increased NFAT activity via Gal-3BP.

Assay [3] has as its system human monocyte-derived macrophages (M0). Description: Macrophage phenotype: IL-10, IL-2, IL-12 and IL-6 production (ELISA). It is filed as cell-based. The note with it: Gal-3BP 10 μg/ml over 48 h. How it is done:
(§2) Monocytes were isolated from peripheral blood of human healthy donors. Monocyte purity as assessed by flow cytometry for CD14 (clone HCD14, BioLegend, San Diego, Calif.) was routinely >97%. Monocytes were cultured for six days with M-CSF (100 ng/ml, Peprotech, Rocky Hill, N.J.) in macrophage serum-free medium (Gibco, Carlsbad, Calif.) supplemented with nutridoma SP (Roche, Nutley, N.J.), and penicillin/streptomycin (Sigma Aldrich).
as §1
Human blood monocytes were incubated with M-CSF (100 ng/ml) for 6 days to produce monocyte-derived macrophages (M0). These macrophages were incubated with interferon-γ (250 units/ml) for 1 day to produce M1 macrophages or with IL-4 (20 units/ml) to produce M2 macrophages or with PGE-2 (1 μM) to produce Mreg macrophages and then challenged with LPS (10 ng/ml) for another day or with Gal-3BP (10 μg/ml over 48 h). […] P values are indicated on the graphs.

The subject of assay [4] is NFAT. Put plainly: NFAT translocation to nucleus, immunofluorescence microscopy. It is filed as cell-based, human. The settings on record: Gal-3BP 10 μg/ml for 2 hours; M0 macrophages; FIG. 5. Here is the method: Cells were fixed in formaldehyde 4%, 10-20 min, room temperature. Cells were then permeabilized in chilled methanol, 5-10 min, and −20° C. in and washed extensively with PBS, then blocked using 5% donkey serum in PBS. Primary antibody (Rabbit anti-NFATc2/NFATp (1:50, ImmunoGlobe), diluted in PBS with goat serum 10%) was applied over night in 4° C. Biotin anti-rabbit antibodies (1:200 Molecular Probes) were incubated for 1 hour. Streptavidin, (Alexa Fluor® 594 conjugate*2 mg/mL*Cat. No. S-32356) detection 1:1000 for 1 hour. DAPI (1:1,000, Sigma Aldrich) for 5 min at room temperature.
These macrophages were then incubated with Gal-3BP (10 μg/ml for 2 hours). Both samples were stained with DAPI (nuclear stain) and an antibody to NFAT (anti-NFAT c2/p IG 209, affinity purified rabbit antibody, ImmunoGlobe). Nuclear translocation was assessed by immunofluorescence microscopy (FIG. 5).

The next assay relates to human macrophages. Description: Gal-3BP-induced IL-2 secretion in monocyte-derived macrophages (ELISA). Format: cell-based. Here is the method:
as §2, §1
Human blood monocytes were incubated with M-CSF (100 ng/ml) for 6 days to produce monocyte-derived macrophages (MO). These macrophages were incubated with interferon-γ (250 u/ml) for 1 day to produce M1 macrophages or with IL-4 (20 units/ml) to produce M2 macrophages or with PGE-2 (1 μM) to produce Mreg macrophages and then challenged with LPS (10 ng/ml) for another day or with Gal-3BP (10 μg/ml over 48 h).
Human blood monocytes were cultured as in (A) (*P=0.05, ***P<0.0001). These macrophages were incubated with Gal-3BP (0.1,1 and 10 μug/ml) for 6 hours and IL-2 was measured by ELISA. […] Human blood monocytes were cultured as in (A). These macrophages were incubated with Gal-3BP (10 μg/ml) or LPS (10 ng/ml) for 6 hours (***P<0.0001).

In assay [5] the test system is intracellular free Ca^2+ in human M0 macrophages. Put plainly: Ca2+ mobilization in M0 macrophages, fluo-4 fluorescence microscopy. It is filed as cell-based. The settings on record: Gal-3BP 10 ug/ml; M0 macrophages loaded with 1 μM fluo-4; FIG. 4. Here is the method:
Human blood monocytes were cultured as described in Example 2 to produce MO macrophages, incubated with 1 μM fluo-4 for 30 minutes to quantify intracellular free Ca^2+ concentrations, and then triggered with Gal-3BP (10 ug/ml) with or without the PLC-γ inhibitor U73122 (10 nM). Thapsigargin (100 nM) served as positive control. Ca^2+ mobilization was assayed by fluorescence microscopy as previously described (Zanoni et al., Nature 460:264 (2009)). Each line is a measurement from a single cell (FIG. 4).

B1: Gal-3BP: Galectin-3 binding protein, a secreted 585 (murine 577) amino acid protein; human sequence SEQ ID NO:1 (protein, listed as Homo sapiens)
chain: MTPPRLFWVWLLVAGTQGVNDGDMRLADGGATNQGRVEIFYRGQWGTVCDNLWDLTDASVVCRALGFENATQALGRAAFGQGSGPIMLDEVQCTGTEASLADCKSLGWLKSNCRHERDAGVVCTNETRSTHTLDLSRELSEALGQIFDSQRGCDLSISVNVQGEDALGFCGHTVILTANLEAQALWKEPGSNVTMSVDAECVPMVRDLLRYFYSRRIDITLSSVKCFHKLASAYGARQLQGYCASLFAILLPQDPSFQMPLDLYAYAVATGDALLEKLCLQFLAWNFEALTQAEAWPSVPTDLLQLLLPRSDLAVPSELALLKAVDTWSWGERASHEEVEGLVEKIRFPMMLPEELFELQFNLSLYWSHEALFQKKTLQALEFHTVPFQLLARYKGLNLTEDTYKPRIYTSPTWSAFVTDSSWSARKSQLVYQSRRGPLVKYSSDYFQAPSDYRYYPYQSFQTPQHPSFLFQDKRVSWSLVYLPTIQSCWNYGFSCSSDELPVLGLTKSGGSDRTIAYENKALMLCEGLFVADVTDFEGWKAAIPSALDTNSSKSTSSFPCPAGHFNGFRTVIRPFYLTNSSGVD
As to B1, the “IL-2 secretion over time” value with NFAT [1] is listed as “induced secretion of IL-2”. Further, in assay [2], the “Number of eight NFAT-target microRNAs significantly up-regulated” value was “five were significantly up-regulated”. Further, the IL-10 production entry in assay [3] (FIG. 2A) is on record as “moderate IL-10”. Moreover, the IL-2 production entry was “production of IL-2” in assay [3] (FIG. 2B); “induces IL-2 production” in the assay with human macrophages (Gal-3BP 10 μg/ml or LPS 10 ng/ml for 6 hours, FIG. 1C, P<0.0001); “induced production of IL-2” in the assay on human macrophages (Gal-3BP 10 μg/ml over 48 h, standard ELISA, FIG. 1A, P=0.0003). Besides, in assay [3] (FIG. 2C), the IL-12 production result was “no IL-12”. The IL-6 production result in assay [3] (FIG. 2D) is on record as “little IL-6”. Further, the “NFAT translocation to nucleus” value with NFAT [4] is “induces NFAT translocation to nucleus”. Further, the “IL-2 production, concentration dependence” value in the assay with human macrophages (Gal-3BP 0.1, 1 and 10 μg/ml for 6 hours, ELISA, FIG. 1B) is on record as “concentration dependently induces IL-2 production”. For the same molecule, the “Ca^2+ mobilization” value in assay [5] is reported as “triggers Ca^2+ mobilization”.
